Assay results as given in US20240174754A1 (published 2024).

Columns and labels:
Human CD8+ T Cells [1] = test: FACS binding to human CD8+ T cells; Donor KP63715
Human CD8+ T Cells [2] = test: FACS binding to human CD8+ T cells; Donor KP63218

B1: PA015 (antibody, V domains shown)
VH: QVTLRESGPALVKPTQTLTLTCTVSGFSLSTFGMGVGWIRQPPGKALEWLAHIWWDDDKWYELALKSRLTISKDTSKNQVVLTITNMDPVDTATYYCARVIYYGSRSAYYSMDYWGQGTTVTVSS
VL: DVVMTQTPLSLSVTPGQPASISCKSSQSIVHSNAHTYLEWYLQKPGQSPQLLIYKVSNRFSGVPDRFSGSGSGTDFTLKISRVEAEDVGVYYCFQGSHVPVTFGQGTKLEIKR
EC50 (Human CD8+ T Cells [1]): 3.18 ng/mL
EC50 (Human CD8+ T Cells [2]): 10.8 ng/mL
